From US20260022176A1 (PARAGON THERAPEUTICS, published 2026)
“And” between values parts separate entries of the source, which are not always exact repeats. Equal values may be shown once.

B1: α4β7 binding antibody Ab001 (antibody, human IgG1, kappa)
heavy: QVQLVQSGAEVKKPGASVKVSCKGSGYTFTSYWMHWVRQAPGQRLEWIGEIDPSESNTNYNQKFKGRVTLTVDISASTAYMELSSLRSEDTAVYYCARGGYDGWDYAIDYWGQGTLVTVSSASTKGPSVFPLAPSSKSTSGGTAALGCLVKDYFPEPVTVSWNSGALTSGVHTFPAVLQSSGLYSLSSVVTVPSSSLGTQTYICNVNHKPSNTKVDKKVEPKSCDKTHTCPPCPAPELAGAPSVFLFPPKPKDTLYITREPEVTCVVVDVSHEDPEVKFNWYVDGVEVHNAKTKPREEQYNSTYRVVSVLTVLHQDWLNGKEYKCKVSNKALPAPIEKTISKAKGQPREPQVYTLPPSRDELTKNQVSLTCLVKGFYPSDIAVEWESNGQPENNYKTTPPVLDSDGSFFLYSKLTVDKSRWQQGNVFSCSVMHEALHNHYTQKSLSLSPG
light: DVVMTQSPLSLPVTPGEPASISCRSSQSLAKSYGNTYLSWYLQKPGQSPQLLIYGISNRFSGVPDRFSGSGSGTDFTLKISRVEAEDVGVYYCLQGTHQPYTFGQGTKVEIKRTVAAPSVFIFPPSDEQLKSGTASVVCLLNNFYPREAKVQWKVDNALQSGNSQESVTEQDSKDSTYSLSSTLTLSKADYEKHKVYACEVTHQGLSSPVTKSFNRGEC
notes: also called long acting α4β7 targeting molecule; Ab001-A647
B2: comparator antibody (antibody, human IgG1, kappa)
heavy: not shown
light: B1 light
B3: Natalizumab (antibody, V domains shown)
VH: QVQLVQSGAEVKKPGASVKVSCKASGFNIKDTYIHWVRQAPGQRLEWMGRIDPANGYTKYDPKFQGRVTITADTSASTAYMELSSLRSEDTAVYYCAREGYYGNYGVYAMDYWGQGTLVTVSS
VL: DIQMTQSPSSLSASVGDRVTITCKTSQDINKYMAWYQQTPGKAPRLLIHYTSALQPGIPSRFSGSGSGRDYTFTISSLQPEDIATYYCLQYDNLWTFGQGTKVEIK

What was measured:
Cyno- α4β7 = biological target: T1, Cyno- α4β7 (Cyno); experiment: SPR with multiple cycle kinetics
T1 construct: SPR antigen; construct not described; also called cynomolgus α4β7 integrin

Dog- α4β7 = biological target: T2, Dog- α4β7 (Dog, UniProt A0A8I3PRY8 36-976; A0A8I3P7W0 20-723); experiment: SPR with multiple cycle kinetics
T2 construct: SPR antigen; construct not described; also called dog α4β7 integrin; copies: 1 + 1

Rabbit- α4β7 = biological target: T3, Rabbit- α4β7 (Rabbit, UniProt G1TY34 34-977; G1SFE7 20-723); experiment: SPR with multiple cycle kinetics
T3 construct: SPR antigen; construct not described; also called rabbit α4β7 integrin; copies: 1 + 1

[1] = biological target: T4, rat α4β7 integrin on rat PBMCs (rat, UniProt D3ZMQ3 38-1036; G3V7M2 20-791); experiment: flow cytometry on cryopreserved rat PBMCs
T4 construct: whole, on cells; That the target on them is α4β7 is inferred from the purpose of the study; also called cells isolated from rats

[2] = biological target: T5, mouse α4β7 integrin on mouse PBMCs (mouse, UniProt Q00651 41-1039; P26011 20-806); experiment: flow cytometry on cryopreserved mouse PBMCs
T5 construct: whole, on cells; That the target on them is α4β7 is inferred from the purpose of the study; also called cells isolated from mice

[3] = biological target: T6, monkey α4β7 integrin on monkey PBMCs (monkey); experiment: receptor occupancy: competition with fluorescently labeled antibody, flow cytometry; all cell types, monkey PBMCs; mean, n = 7
T6 construct: whole, on cells; Receptor occupancy on CD4+, CD20+ and CD45RO+ cells from monkey donors
Method: (§1) The IC₅₀ values for competitive inhibition were determined by titrating unlabeled Ab001 into samples equilibrated with EC₅₀ concentrations of fluorescently labeled Ab001. Ab001 and Comparator Antibody Receptor Occupancy (IC₅₀) on CD4+, CD20+, and CD45RO+Cells from Human and Monkey Donors are shown in Table 2B.

[4] = biological target: T6, monkey α4β7 integrin on monkey PBMCs; experiment: receptor occupancy: competition with fluorescently labeled antibody, flow cytometry; CD20+ B cells, monkey PBMCs; range, n = 3 donors
Method: as §1

[5] = biological target: T6, monkey α4β7 integrin on monkey PBMCs; experiment: receptor occupancy: competition with fluorescently labeled antibody, flow cytometry; CD4+ Th cells, monkey PBMCs; range, n = 3 donors
Method: as §1

[6] = biological target: T6, monkey α4β7 integrin on monkey PBMCs; experiment: receptor occupancy: competition with fluorescently labeled antibody, flow cytometry; CD45RO+ memory T cells, monkey PBMCs; n = 1 donor
Method: as §1

[7] = biological target: α4β1 integrin on cells (α4β1-positive Ramos cells; HuT-78 cells) (UniProt P13612 34-1032; P05556 21-798, limits assumed); experiment: cell-based or functional assay

Binder | Kd (Cyno- α4β7) [pM] | Kd (Dog- α4β7) [pM] | Kd (Rabbit- α4β7) [pM] | binding result [1] | binding result [2] | IC50 [3] [pM] | IC50 [4] | IC50 [5] | IC50 [6] [pM] | VCAM-1 Inhibition IC50 (adhesion of HuT-78 cells to coated recombinant VCAM-1) [7] [pM]
B1 | 2720 | 4810 | 6260 | no binding | no binding | 500 | 460 pM and 500 pM | 490 pM and 540 pM | 530 | 
B2 | 1200 | 1770 | 5340 | no binding | no binding | 560 | 420 pM and 660 pM | 480 pM and 600 pM | 580 | 
B3 |  |  |  |  |  |  |  |  |  | 230
